Assay results: the supplement of paper PMC7125110
± gives the standard error. This sample holds only a part of the variants without activity.

B1: glmS ribozyme (parent)
chain: AUAAAAGCGCCAGAACUACAGAAAUGUAGUUGACGAGGAGGAGGUUUAUCGAAUUUUCGGCGGAUGCCUCCAAA

Variants of: B1
Assay: self-cleavage kobs at 10000 uM GlcN6P; higher = faster cleavage; RNA array
Details: with glucosamine-6-phosphate
Outline: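 Tracking of barcoded ribozyme variants used a hybridised Cy3 probe at 37 °C, after in situ transcription by E. coli RNA polymerase on sequenced MiSeq chips. The flowed solution held 40 μM to 10 mM glucosamine-6-phosphate in HEPES/KCl/Mg(OAc)2 buffer, and imaging ran over ~14 h. kobs was taken from exponential decay fits of normalised per-tile medians, and kcat and KM from weighted Michaelis–Menten fits.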

Variant	self-cleavage kobs at 10000 uM GlcN6P
A39G G60A	2.33e-05 ± 1.2e-05 s⁻¹
C10G C11G U55C G60A	< 1e-05 s⁻¹
C8U C16A A39C C58U A64G C67G	< 1e-05 s⁻¹
A6G G9U G35U G38A G40A	< 1e-05 s⁻¹
C16A G35C A64C	< 1e-05 s⁻¹
A6G U30A C34U C67G C71G	7.35e-05 ± 3.3e-05 s⁻¹
G13C A36C U54C	< 1e-05 s⁻¹
C10U G37A G44A C70U	< 1e-05 s⁻¹
A36G U46A C58A	< 1e-05 s⁻¹
G13C U65A	< 1e-05 s⁻¹
A42G U45A U65C	0.00105 ± 0.00028 s⁻¹
G21U A33U C70U	0.000159 ± 2.9e-05 s⁻¹
C8A C11G U49C C67G	< 1e-05 s⁻¹
G35C G37U C68G	7.56e-05 ± 2.4e-05 s⁻¹
C8G C16U A53G C61U	< 1e-05 s⁻¹
G29A C58U	4.95e-05 ± 8.6e-06 s⁻¹
A39U G43A U47C G59A C67U	< 1e-05 s⁻¹
A42U A64C C67U	< 1e-05 s⁻¹
G32C U54A U56G	3.42e-05 ± 1.1e-05 s⁻¹
C50G G60A C71G	0.000124 ± 3.5e-05 s⁻¹
G41C U57G	< 1e-05 s⁻¹
G9A A33U U69C	< 1e-05 s⁻¹
C10A A12G A52G C70A	6.91e-05 ± 1.7e-05 s⁻¹
G13A G29A G63U	< 1e-05 s⁻¹
G38U A39U A42C A48U	< 1e-05 s⁻¹
C34U U45A C61U	< 1e-05 s⁻¹

Variant	self-cleavage kobs at 10000 uM GlcN6P
C8U U45A A48G C70G	< 1e-05 s⁻¹
C8U A39C G41A U57C G59U	< 1e-05 s⁻¹
G35C G59A C61U	< 1e-05 s⁻¹
A15G G29C G43U G60U	< 1e-05 s⁻¹
A14G A36C U54A G63U	< 1e-05 s⁻¹
G32C A36U U69G C70A	0.000103 ± 2.4e-05 s⁻¹
C8A G35U G44U A52G	< 1e-05 s⁻¹
C8U G9U G37A C67G	< 1e-05 s⁻¹
A33U G40A	4.3e-05 ± 5.8e-06 s⁻¹
G40C U45A U49G	5.2e-05 ± 1.9e-05 s⁻¹
G13C G40A	2.64e-05 ± 9.8e-06 s⁻¹
G32C G35A G60A	< 1e-05 s⁻¹
G32U A53G C67G	0.000238 ± 3.8e-05 s⁻¹
A14U A39C U65C	6.04e-05 ± 1.6e-05 s⁻¹
U30C G40A A53C C58U	< 1e-05 s⁻¹
C16G G29A C67A	0.000261 ± 8.9e-05 s⁻¹
A6G C34A A42U U54G	< 1e-05 s⁻¹
C8A U56A A64G	< 1e-05 s⁻¹
C34U G43U U57G U65G	< 1e-05 s⁻¹
G9U G43U A53C	< 1e-05 s⁻¹
C11U G32U G35U A64U	< 1e-05 s⁻¹
A12U G40C G41U	6.81e-05 ± 1.9e-05 s⁻¹
A48U U54C C68U	9.01e-05 ± 2.8e-05 s⁻¹
C8U G40U C61U C67U	< 1e-05 s⁻¹
A36C G38C A64C	< 1e-05 s⁻¹
C11U U45A	0.002 ± 0.00051 s⁻¹

Variant	self-cleavage kobs at 10000 uM GlcN6P
A12U A15U G29A	0.00126 ± 0.00032 s⁻¹
A12G A14C U31C U47G A52G G59A G60U	< 1e-05 s⁻¹
G35C A48G G59U G60A	< 1e-05 s⁻¹
G29U G37A C67U	5.27e-05 ± 1.5e-05 s⁻¹
G29A A33U	3.01e-05 ± 5.5e-06 s⁻¹
G13C G43A	< 1e-05 s⁻¹
A39G U45C C67A	0.00692 ± 0.0024 s⁻¹
U31A G51U C68A	< 1e-05 s⁻¹
G32U G40U C70U	5.9e-05 ± 1.3e-05 s⁻¹
A15C A36C C67A	< 1e-05 s⁻¹
A14U C19U C58G	9.16e-05 ± 2.1e-05 s⁻¹
C11U A52G G63C U69G	8.28e-05 ± 1.9e-05 s⁻¹
C8U G13U A15U C50U	< 1e-05 s⁻¹
C8G G32U G66U	< 1e-05 s⁻¹
C8A A42G G66U	< 1e-05 s⁻¹
A42U A52G U57A G63C	< 1e-05 s⁻¹
A15C G35C C50G	4.99e-05 ± 1.2e-05 s⁻¹
A14U A64C	2.75e-05 ± 1.3e-05 s⁻¹
G41U C67U	2.83e-05 ± 1.1e-05 s⁻¹
A4U A39G C70A	0.000171 ± 4.7e-05 s⁻¹
A6U G38A G66C	< 1e-05 s⁻¹
C34A A64G U69C	< 1e-05 s⁻¹
A12U A15U C16A	0.00105 ± 0.00024 s⁻¹
A15G G32C G59C	< 1e-05 s⁻¹
G37C A64G C70U	4.49e-05 ± 1.6e-05 s⁻¹
A12G U30G U47C U49C	< 1e-05 s⁻¹

Variant	self-cleavage kobs at 10000 uM GlcN6P
U31C U47C C70U	0.000673 ± 0.00014 s⁻¹
A14U G43U G51A	< 1e-05 s⁻¹
G35C G51U G62U	< 1e-05 s⁻¹
G9A G60U C70G	< 1e-05 s⁻¹
C8U U57A U69G	0.000575 ± 0.00016 s⁻¹
A6C U31A G44A U65A	< 1e-05 s⁻¹
A42G U55A C68G	7.44e-05 ± 2e-05 s⁻¹
A42G U46G U56C	0.00095 ± 0.0002 s⁻¹
U55G G59C C70A	0.000104 ± 2.7e-05 s⁻¹
G7C G62C	< 1e-05 s⁻¹
A48U C50G	< 1e-05 s⁻¹
C50U A53U G59C U65A	< 1e-05 s⁻¹
C16A G51U U65A	< 1e-05 s⁻¹
C10U G43A C71U	< 1e-05 s⁻¹
A12G U45A C71U	0.00191 ± 0.0004 s⁻¹
G44A U45A C58G	< 1e-05 s⁻¹
G40U G43U U54C	< 1e-05 s⁻¹
A6G C16A G37C U69C	< 1e-05 s⁻¹
A12U C50G G62A C71U	8.18e-05 ± 2.2e-05 s⁻¹
A14U U55C C67A C70A C71U	< 1e-05 s⁻¹
G40C G59C U65G	< 1e-05 s⁻¹
G9C G32C A36U U46A	< 1e-05 s⁻¹
C11U A64U C67G	< 1e-05 s⁻¹
A52U U55C U65C C68G U69A	< 1e-05 s⁻¹
U2C C11U G59U	0.000103 ± 2.1e-05 s⁻¹
A39C U55G C70U	0.000211 ± 4e-05 s⁻¹
